Data: publication PMC4722452

Assays:
[1] = target: Sos^CatW729E (UniProt Q07889); experiment: other fluorescence titration; quenching of the intrinsic Trp fluorescence of Sos (10 μM) on adding Ras (1-50 μM) in Hepes buffer; excitation 295 nm, emission 336 nm; single-site quadratic fit; overall apparent (macroscopic) Kd
[2] = target: Sos^Cat (Son of Sevenless, residues 563-1049) (UniProt Q07889); experiment: as above
[3] = target: Sos^Cat (Son of Sevenless, residues 563-1049) (UniProt Q07889); experiment: NMR titration; 1H,13C HMQC of [13C-methyl-Met,Ile]Sos^Cat or Sos^CatW729E (60 μM) with unlabelled Ras added at Ras:Sos 0.5:1 to 4:1; 298 K; Met methyl reporter signals M726 (allosteric), M824 (catalytic), M714 (between)

Row | Substance | Kd [1] [µM] | Kd [2] [µM] | apparent microscopic Kd, allosteric site (from the M726 signal shift) [3] [µM]
1 | H-Ras·GDP (from UniProt P01112 1-166) (domain or fragment) | 67 | – | –
2 | H-Ras·GTPγS (from UniProt P01112 1-166) (domain or fragment) | 28 | – | –
3 | K-RasG12V·GTPγS (from UniProt P01116 1-166) (domain or fragment) | – | 31 | –
4 | K-Ras·GTPγS (from UniProt P01116 1-166) (domain or fragment) | – | 10 | 2
